# Measurements: the supplement of paper PMC10724198
# ± gives the standard deviation of the averaged measurements.
# Tested on: Saccharomyces cerevisiae
# Assay: protein stability index of tFT-peptide fusion (C-terminal peptide) (PSI (0-1 scale)); higher = more stable (slower turnover)
# Conditions: genetic background: wild type; temperature: 30 C
# 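Also: PSI is a weighted mean of sequencing reads over stability bins, variants kept only with over 10 reads, mCherry proximal and sfGFP distal, peptide attached via GGGS linker.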
row,Sequence,protein stability index
1,VVRQDQPDLKSS,0.691 ± 0.008
2,VVRRHKRVLMRF,0.659 ± 0.015
3,VVSDGARLVWGG,0.754 ± 0.12
4,VVSYFFSNDVLH,0.752 ± 0.073
5,VVSYVHTQPPLS,0.684 ± 0.073
6,VVTFSRSDIVLR,0.694 ± 0.076
7,VVVFPYCPLPLV,0.597 ± 0.076
8,VVVGVGGGVDMG,0.685 ± 0.0082
9,VVVSDFRSCNMS,0.736 ± 0.043
10,VVVVRCGWGGCG,0.592 ± 0.012
11,VWASVRRIFRVG,0.554 ± 0.0058
12,VWGVRVVCGFTV,0.533 ± 0.0038
13,VWLGGRECVVRG,0.597 ± 0.02
14,VWRGVWQVVVGG,0.5227 ± 0.0013
15,VWSDGCWVDWLL,0.733 ± 0.13
16,VWSGGCVSRWSG,0.745 ± 0.15
17,VWSLGLSVVGLW,0.649 ± 0.092
18,VYFLRLERVPSF,0.696 ± 0.017
19,VYGGFGGGRWVI,0.702 ± 0.087
20,VYGVLLGWGCVV,0.577 ± 0.015
21,VYGWSPLSEARN,0.738 ± 0.025
22,VYLVVSSSMDYR,0.633 ± 0.078
23,VYNLHRGLFLSL,0.512 ± 0.0097

row,Sequence,protein stability index
1,VYSAGRAVGLAG,0.673 ± 0.035
2,VYSGYVFRKDGI,0.695 ± 0.024
3,VYTNAVPLSSNA,0.817 ± 0.1
4,VYVEMWGTSENW,0.653 ± 0.011
5,WAGGGFVVGCVG,0.629 ± 0.062
6,WALRADGGERTG,0.684 ± 0.021
7,WAPFGKMVGGPW,0.785 ± 0.027
8,WAPPPPYSPFSL,0.704 ± 0.0098
9,WARFRKGEVRSG,0.748 ± 0.072
10,WARLVSSSLAAT,0.61763 ± 0.00038
11,WAVGGKVNEVIE,0.757 ± 0.06
12,WCGSSGLFLVVW,0.594 ± 0.017
13,WCTLNGASLCLH,0.7719 ± 0.0067
14,WCWTYLRFSVEL,0.677 ± 0.055
15,WDGGGGGFGLVV,0.755 ± 0.06
16,WDGWPTRAGGTG,0.7141 ± 0.0069
17,WEGVGERVGGGA,0.638 ± 0.017
18,WENMDKCSKGLI,0.6767 ± 0.0033
19,WERRRGVCGGVW,0.707 ± 0.05
20,WEWGCRVEELSG,0.742 ± 0.0086
21,WFFRSVVPRCGG,0.63 ± 0.038
22,WFPSSLPLTCIQ,0.651 ± 0.084
23,WGAGGGGWWGGV,0.731 ± 0.03

row,Sequence,protein stability index
1,WGALVLAVRSAP,0.642 ± 0.037
2,WGEGSGRVWEIS,0.679 ± 0.019
3,WGGAGRVWVLGP,0.696 ± 0.019
4,WGGGGRGWGSRG,0.684 ± 0.057
5,WGGGSGRRIGCR,0.70604 ± 0.00021
6,WGGLGGREPGGS,0.74 ± 0.078
7,WGGVRRVRVGGQ,0.723 ± 0.053
8,WGLCWFGCLWGR,0.692 ± 0.033
9,WGLGVGGCGWVG,0.67 ± 0.018
10,WGPGGGGVSDGM,0.768 ± 0.019
11,WGQGTGFWGLFG,0.681 ± 0.024
12,WGRGEWKRGQEA,0.743 ± 0.053
13,WGRTRGDHGGKK,0.686 ± 0.04
14,WGSWCLVPDGNE,0.717 ± 0.084
15,WGTTLMYKAKKA,0.616 ± 0.024
16,WHACAGWLGQKG,0.71 ± 0.078
17,WHGDDSSIWQVG,0.791 ± 0.036
18,WHGSVPHLWFPP,0.59 ± 0.026
19,WHIEGFGQYYSL,0.736 ± 0.019
20,WHRCQWTPASRP,0.733 ± 0.05
21,WIGHALPSSNSH,0.675 ± 0.056
22,WKKSIKKDTREM,0.721 ± 0.012
23,WKPGSPGCQAFR,0.6031 ± 0.0017

row,Sequence,protein stability index
1,WKRDSCFFIEAG,0.638 ± 0.042
2,WLAVVGRDGFLG,0.729 ± 0.016
3,WLFSSRDSGACR,0.8029 ± 0.0011
4,WLGGIFRNKVFT,0.621 ± 0.013
5,WLGSGESVGHAG,0.686 ± 0.067
6,WLGTGIILPITG,0.793 ± 0.13
7,WLGWIVNNSNTE,0.753 ± 0.058
8,WLLSVYSVGTDV,0.589 ± 0.2
9,WLSDSCRMNSEV,0.666 ± 0.035
10,WLSLPLAHLFSP,0.681 ± 0.047
11,WLVGSGGVWSGR,0.706 ± 0.019
12,WLVRNVVGGGLC,0.701 ± 0.046
13,WLVSPPTPFPLP,0.6422 ± 0.0039
14,WMDNTKKGNKDS,0.736 ± 0.06
15,WMSGETTHTGRP,0.742 ± 0.026
16,WMTFTTAVTDGG,0.656 ± 0.046
17,WNLESKTEARTR,0.704 ± 0.049
18,WNRNVEILSALA,0.548 ± 0.012
19,WNRSAFLSSGTI,0.67578 ± 3.2e-05
20,WNRVPEWTREPL,0.719 ± 0.022
21,WNSISGRTVVYM,0.709 ± 0.092
22,WPAFYTSRLLLR,0.615 ± 0.034
23,WPPPPPYSPFSL,0.737 ± 0.02

row,Sequence,protein stability index
1,WPVALAPTRLEI,0.608 ± 0.072
2,WQIRREMFECGL,0.677 ± 0.025
3,WRAGGGGGPAGV,0.679 ± 0.029
4,WRAGSGGGPLAS,0.68 ± 0.043
5,WRCAGGGGVGGG,0.6956 ± 0.0011
6,WRELGCFGVRGD,0.732 ± 0.022
7,WRLFFGVNLIKF,0.622 ± 0.037
8,WRSIQLVHDKRR,0.6808 ± 0.0056
9,WRVMCLQRCSGV,0.541 ± 0.011
10,WRYFLGKGRMSF,0.742 ± 0.014
11,WSDGGRGGGWGK,0.656 ± 0.015
12,WSPLFPLLASST,0.678 ± 0.016
13,WSREGGVVESVG,0.709 ± 0.019
14,WSRGGGGHKEAM,0.639 ± 0.022
15,WSRPAGVRSSLA,0.7039 ± 0.00079
16,WSRPVTFRIGLW,0.653 ± 0.017
17,WTGGEEGTAVQA,0.676 ± 0.025
18,WTGTTGQSLYLS,0.733 ± 0.1
19,WVAADTDGEPKH,0.6986 ± 0.0057
20,WVCLGWGVPRSG,0.835 ± 0.031
21,WVFSGTWSSVSG,0.671 ± 0.027
22,WVGGGGGPSGVV,0.733 ± 0.042
23,WVGWVACGAGGG,0.651 ± 0.061

row,Sequence,protein stability index
1,WVHTLHARIGCQ,0.625 ± 0.046
2,WVKGRVKIEGGQ,0.68 ± 0.042
3,WVLFWWRGRSGR,0.665 ± 0.042
4,WVPISPFLTPSH,0.716 ± 0.025
5,WVSILRWDACSR,0.685 ± 0.014
6,WVSRDFLVEAVW,0.557 ± 0.026
7,WVTSSTRGRSGS,0.644 ± 0.033
8,WWGCLGGRAGSR,0.695 ± 0.028
9,WWGFGRVCGGGV,0.774 ± 0.092
10,WYYTCSEFSIYN,0.693 ± 0.0071
11,YAAQLGLGVLVG,0.6 ± 0.0077
12,YACADVSDPLSV,0.721 ± 0.019
13,YAGDPEAAAEWG,0.68 ± 0.052
14,YCRGGGLAKREV,0.689 ± 0.021
15,YDCPLPPSGLTI,0.688 ± 0.036
16,YDYASTCGSCIY,0.774 ± 0.024
17,YERPIVAAVRSR,0.724 ± 0.02
18,YESHVLDRMDGR,0.651 ± 0.026
19,YFALLMLTPPPP,0.636 ± 0.022
20,YFDVFLRLAFSR,0.655 ± 0.04
21,YFFRLLYRLWSR,0.676 ± 0.092
22,YFLCPPTSPHRH,0.736 ± 0.13
23,YGGAWGGVIHVC,0.657 ± 0.0081

row,Sequence,protein stability index
1,YGILSVRGSLSR,0.76 ± 0.065
2,YGLSVSSLRLWP,0.6853 ± 0.0051
3,YGMETVAVYTEG,0.666 ± 0.019
4,YGPDQIGPRPGL,0.69 ± 0.041
5,YGRLPNWGASTE,0.714 ± 0.014
6,YIDDGVVENVRV,0.681 ± 0.02
7,YINFQKMRKKFD,0.723 ± 0.04
8,YINILKLVMNQD,0.736 ± 0.052
9,YKNKRSNKRKHK,0.702 ± 0.0098
10,YLCARGIFTLYV,0.602 ± 0.034
11,YLGCPSHLALPL,0.721 ± 0.076
12,YLGTTHTGTSHR,0.701 ± 0.019
13,YLGYADDLLIML,0.707 ± 0.018
14,YLPRLISAPVGP,0.753 ± 0.076
15,YLYMESTVESHL,0.719 ± 0.025
16,YMTWRGCGWSGG,0.697 ± 0.1
17,YPDNRGRGPRQP,0.686 ± 0.082
18,YPDPLSVSPPPA,0.682 ± 0.097
19,YPSLPTLCSKQP,0.643 ± 0.084
20,YPTLHEPHSPAL,0.738 ± 0.052
21,YPTLMRNGTEKT,0.696 ± 0.017
22,YPYLLSPRPPPP,0.628 ± 0.047
